# From PMC7784082 (Cell metabolism, 2019)
# Biological target: TAZ, mouse, expressed from plasmid (HA-TAZ WT) (mouse, UniProt Q9EPK5 1-395)
# Assay: co-IP
# Sequence of TAZ, mouse, expressed from plasmid (HA-TAZ WT) (Q9EPK5 whole entry): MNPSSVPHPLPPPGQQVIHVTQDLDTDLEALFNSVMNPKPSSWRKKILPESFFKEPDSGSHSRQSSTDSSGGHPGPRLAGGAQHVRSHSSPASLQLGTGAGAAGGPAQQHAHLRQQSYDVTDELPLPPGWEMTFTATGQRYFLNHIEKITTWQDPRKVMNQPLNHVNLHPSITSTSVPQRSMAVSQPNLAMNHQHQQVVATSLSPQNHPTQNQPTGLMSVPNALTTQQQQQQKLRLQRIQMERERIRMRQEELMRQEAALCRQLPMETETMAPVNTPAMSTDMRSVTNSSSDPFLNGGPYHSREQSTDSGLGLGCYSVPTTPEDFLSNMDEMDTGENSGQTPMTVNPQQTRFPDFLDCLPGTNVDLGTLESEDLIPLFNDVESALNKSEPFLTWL
binder,measurement,value
"PPARγ S112D (phospho-mimic mutant of mouse PPARgamma 2) (natural protein, UniProt P37238-1 1-505, looked up) MGETLGDSPVDPEHGAFADALPMSTSQEITMVDTEMPFWPTNFGISSVDLSVMEDHSHSFDIKPFTTVDFSSISAPHYEDIPFTRADPMVADYKYDLKLQEYQSAIKVEPADPPYYSEKTQLYNRPHEEPSNSLMAIECRVCGDKASGFHYGVHACEGCKGFFRRTIRLKLIYDRCDLNCRIHKKSRNKCQYCRFQKCLAVGMSHNAIRFGRMPQAEKEKLLAEISSDIDQLNPESADLRALAKHLYDSYIKSFPLTKAKARAILTGKTTDKSPFVIYDMNSLMMGEDKIKFKHITPLQEQSKEVAIRIFQGCQFRSVEAVQEITEYAKNIPGFINLDLNDQVTLLKYGVHEIIYTMLASLMNKDGVLISEGQGFMTREFLKNLRKPFGDFMEPKFEFAVKFNALELDDSDLAIFIAVIILSGDRPGLLNVKPIEDIQDNLLQALELQLKLNHPESSQLFAKVLQKMTDLRQIVTEHVQLLHVIKKTETDMSLHPLLQEIYKDLY",fold change of association against WT PPARγ,~2 fold
